First the molecules themselves.
B1: Proto-oncogene vav, residues 782 to 842; numbered along this chain, P15498 (parent)
chain: KYFGTAKARYDFCARDRSELSLKEGDIIKILNKKGQQGWWRGEIYGRVGWFPANYVEEDYS

± gives the uncertainty stated by the source.

The variants in this data set derive from B1. The data set can be described thus: abundance fitness (aPCA) (normalised: wild type 0, dead -1); higher = more abundant; growth selection in yeast, the domain comes from the species named. As to conditions: Homo sapiens.
On to KYFGTAKARYDFCARDRSETSLKEGDIIKILNKKGQQGWWRGEIYGRVGWFPANYVEEDYS [L20T], for which the abundance fitness was -0.642 ± 0.19.
Then KYFGTAKARYDFCARDRSELSLKEGDIIKILNKKGQQGWWRGEIYGKVGWFPANYVEEDYS [R47K], with -0.051 ± 0.16; and KYFGTAKARYDFCARDRSELSLKEGDIIKILNKKGQQGWWRGEIYGDVGWFPANYVEEDYS [R47D], with -0.3 ± 0.09.
For KYFGTAKARYDFCARDRSELSLKEGDIIKILNKKGQQGWWRGEIYGFVGWFPANYVEEDYS [R47F] the value was -0.788 ± 0.16; for KYFGTAKARYDFCARDRSELSLKEGDIIKILNKKGQQGWWRGEIYGRVGWFPANYVEEDDS [Y60D], 0.106 ± 0.18; for KYFGTAKARYDFCWRDRSELSLKEGDIIKILNKKGQQGWWRGEIYGRVGWFPANYVEEDYS [A14W], -0.649 ± 0.14.
Then KYFGTAKARYDFCARDRSELSLKEGDIIKILNKKAQQGWWRGEIYGRVGWFPANYVEEDYS [G35A], with -0.346 ± 0.086.
For the variant KYFGTAKARYDFCARDRSELSLKEGDIIKILNKKKQQGWWRGEIYGRVGWFPANYVEEDYS [G35K], the abundance fitness was -0.204 ± 0.11.
Then KYFGTAKARYDFCARDRSELSLKEGDIIKILNKKQQQGWWRGEIYGRVGWFPANYVEEDYS [G35Q], with -0.304 ± 0.13; and KYFGTAKARYDFCARDRSELSLKEGDIIKPLNKKGQQGWWRGEIYGRVGWFPANYVEEDYS [I30P], with -0.814 ± 0.26.
For KYFGTAKARYDFCARDRSELSLKEGDIIKVLNKKGQQGWWRGEIYGRVGWFPANYVEEDYS [I30V] the value was 0.006 ± 0.075.
For KYFGTAKARYDFCARDRSELSLKEGDIIKILNKQGQQGWWRGEIYGRVGWFPANYVEEDYS [K34Q] the value was 0.031 ± 0.072; for KYFGTAKARYDFCARDRSELSLKEGDIIKILNKDGQQGWWRGEIYGRVGWFPANYVEEDYS [K34D], -0.054 ± 0.17; for YYFGTAKARYDFCARDRSELSLKEGDIIKILNKKGQQGWWRGEIYGRVGWFPANYVEEDYS [K1Y], -0.261 ± 0.25.
On to KYFGTAKARYDFCANDRSELSLKEGDIIKILNKKGQQGWWRGEIYGRVGWFPANYVEEDYS [R15N], for which the abundance fitness was -0.411 ± 0.19.
Then KYFGTAKARYDFCARDRSELSLKEGDIIKILNKKGQQGWWRGEIYGRVGWFPGNYVEEDYS [A53G], with -0.4 ± 0.056; and KYFGTAKARYDFCARDRSELSLKEGDIIKILNKKGQQGWWRGEIYGRVGWFPRNYVEEDYS [A53R], with -0.151 ± 0.062; and KYFGTAKARYDFCARDRSELSLKEGDIIKILNKKGQQGWWRSEIYGRVGWFPANYVEEDYS [G42S], with -0.787 ± 0.12.
For KYFGTAKARYDFCARDRSELSLKEGDIIKILNKKGQQGWWREEIYGRVGWFPANYVEEDYS [G42E] the value was -0.809 ± 0.26.
As to KYFGTAKARYDFCARDTSELSLKEGDIIKILNKKGQQGWWRGEIYGRVGWFPANYVEEDYS [R17T], the abundance fitness is -0.027 ± 0.12.
Then KYFGTAKARYDFCARDFSELSLKEGDIIKILNKKGQQGWWRGEIYGRVGWFPANYVEEDYS [R17F], with -0.315 ± 0.15.
For KYFGCAKARYDFCARDRSELSLKEGDIIKILNKKGQQGWWRGEIYGRVGWFPANYVEEDYS [T5C] the value was -0.152 ± 0.11; for KYFGTAKTRYDFCARDRSELSLKEGDIIKILNKKGQQGWWRGEIYGRVGWFPANYVEEDYS [A8T], -0.756 ± 0.19.
Take KYFGTAKGRYDFCARDRSELSLKEGDIIKILNKKGQQGWWRGEIYGRVGWFPANYVEEDYS [A8G]: the abundance fitness was -0.953 ± 0.11.
Then KYFGTAKARYDFCARDRSELSLKEGDIMKILNKKGQQGWWRGEIYGRVGWFPANYVEEDYS [I28M], with -0.593 ± 0.22; and KYFGTAKARYDFCARVRSELSLKEGDIIKILNKKGQQGWWRGEIYGRVGWFPANYVEEDYS [D16V], with -0.308 ± 0.071; and KYFGTAKARYDFCARDRSELSLKEGDKIKILNKKGQQGWWRGEIYGRVGWFPANYVEEDYS [I27K], with -0.22 ± 0.13.
As for KYFGTAKARYDFCARDRSELSLKEGDAIKILNKKGQQGWWRGEIYGRVGWFPANYVEEDYS [I27A], the abundance fitness is -0.331 ± 0.091.
For KYFGTAKARYDFCARDRSELSLKEGDDIKILNKKGQQGWWRGEIYGRVGWFPANYVEEDYS [I27D] the value was -0.151 ± 0.15.
Then KYFGTAKARYDFCARDRSFLSLKEGDIIKILNKKGQQGWWRGEIYGRVGWFPANYVEEDYS [E19F], with -0.657 ± 0.28.
Then KYFGTAKARYDFCARDRSCLSLKEGDIIKILNKKGQQGWWRGEIYGRVGWFPANYVEEDYS [E19C], with -0.502 ± 0.14; and KYFGTAKARYDFCARDRSQLSLKEGDIIKILNKKGQQGWWRGEIYGRVGWFPANYVEEDYS [E19Q], with -0.103 ± 0.19; and KYFGTAKARYEFCARDRSELSLKEGDIIKILNKKGQQGWWRGEIYGRVGWFPANYVEEDYS [D11E], with -0.159 ± 0.098.
As to KYFGTAKARYFFCARDRSELSLKEGDIIKILNKKGQQGWWRGEIYGRVGWFPANYVEEDYS [D11F], the abundance fitness is -0.901 ± 0.28.
For KYFGTAKARHDFCARDRSELSLKEGDIIKILNKKGQQGWWRGEIYGRVGWFPANYVEEDYS [Y10H] the value was 0.079 ± 0.13; for KYFGTAKARWDFCARDRSELSLKEGDIIKILNKKGQQGWWRGEIYGRVGWFPANYVEEDYS [Y10W], -0.116 ± 0.087.
Then KYFGTAKARYDFCARDRSELSLKENDIIKILNKKGQQGWWRGEIYGRVGWFPANYVEEDYS [G25N], with -0.675 ± 0.27; and KYFGTAKARYDFCARDRSELSLKELDIIKILNKKGQQGWWRGEIYGRVGWFPANYVEEDYS [G25L], with -0.904 ± 0.12; and KYFGTAKARYDFCARDRSELSLKEVDIIKILNKKGQQGWWRGEIYGRVGWFPANYVEEDYS [G25V], with -1.21 ± 0.32.
Then KYFGTAKARYDFCARDRSELSLKEGDIIKILNKKGQQGWWRGEIYGRVGWFPANYAEEDYS [V56A], with -0.191 ± 0.098; and KYFGTAKARYDFCARDRSELSLKEGDIIKILNKKGQQGWWRGEIYGRVNWFPANYVEEDYS [G49N], with -0.956 ± 0.41; and KYFGTAKARYDFCARDRSELSLKEGDIIKILNKKGQQGWWRGEIYGRVVWFPANYVEEDYS [G49V], with -0.902 ± 0.32.
In the case of KYFGTAKARYDFCARDRSELSLKEGDIIKILNKKGQQGWWRGEIYGRVGWFPANFVEEDYS [Y55F], the abundance fitness is -0.258 ± 0.16.

Values taken from the Human Domainome abundance scans (Beltran et al. 2025).
